Results as given in patent US20180044391A1 (DEUTSCHES KREBSFORSCHUNGSZENTRUM, published 2018).

Target: T1, CD19 (UniProt P15391 20-556, limits assumed)
T1 sequence (looked up): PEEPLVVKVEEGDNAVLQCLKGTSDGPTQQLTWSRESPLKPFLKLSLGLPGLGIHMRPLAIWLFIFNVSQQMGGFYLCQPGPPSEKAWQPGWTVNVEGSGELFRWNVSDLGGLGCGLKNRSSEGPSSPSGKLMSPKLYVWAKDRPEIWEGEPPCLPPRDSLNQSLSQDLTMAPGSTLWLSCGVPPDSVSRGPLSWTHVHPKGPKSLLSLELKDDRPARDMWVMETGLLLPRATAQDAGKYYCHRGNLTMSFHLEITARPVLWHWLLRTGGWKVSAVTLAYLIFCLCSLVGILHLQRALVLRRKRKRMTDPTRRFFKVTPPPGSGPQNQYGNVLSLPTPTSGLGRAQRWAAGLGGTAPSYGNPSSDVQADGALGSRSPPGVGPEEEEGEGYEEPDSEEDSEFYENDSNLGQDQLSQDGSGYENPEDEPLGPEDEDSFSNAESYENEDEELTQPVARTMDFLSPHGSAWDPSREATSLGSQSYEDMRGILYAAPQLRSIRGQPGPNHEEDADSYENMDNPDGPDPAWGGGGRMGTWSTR
Experiment: cell-based or functional assay

B1: αCD19-SDIE (antibody, human IgG1, V domains shown)
VH: EVQLQQSGPELIKPGASVKMSCKASGYTFTSYVMHWVKQKPGQGLEWIGYINPYNDGTKYNEKFKGKATLTSDKSSSTAYMELSSLTSEDSAVYYCARGTYYYGSRVFDYWGQGTTLTVSS
VL: DIVMTQAAPSIPVTPGESVSISCRSSKSLLNSNGNTYLYWFLQRPGQSPQLLIYRMSNLASGVPDRFSGSGSGTAFTLRISRVEAEDVGVYYCMQHLEYPFTFGAGTKLELK
- inhibition of proliferation of NALM16 cells with PBMC (3H-thymidine uptake, 2 days): ~60%
